{"source": "paper PMC3605307", "data": [{"target": "T1, Recombinant UL141 ectodomain (soluble, released from the Fc fusion), Q6RJQ3", "T1 chain": "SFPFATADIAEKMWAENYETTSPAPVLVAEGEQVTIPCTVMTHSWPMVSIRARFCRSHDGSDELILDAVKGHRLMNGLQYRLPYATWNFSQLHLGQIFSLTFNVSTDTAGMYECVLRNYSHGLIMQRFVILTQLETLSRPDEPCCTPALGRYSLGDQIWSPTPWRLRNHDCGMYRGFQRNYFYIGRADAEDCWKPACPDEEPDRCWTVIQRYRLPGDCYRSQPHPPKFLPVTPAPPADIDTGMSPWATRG", "experiment": "SPR", "details": "chain shown with the change", "units": {"Kd": "nM"}, "values": [{"binder": "Human TRAIL-R2-Fc fusion protein (wild type), O14763 M152A; R154A; K155A (protein) QQDLAPQQRAAPQQKRSSPSEGLCPPGHHISEDGRDCISCKYGQDYSTHWNDLLFCLRCTRCDSGEVELSPCTTTRNTVCQCEEGTFREEDSPEACAACRTGCPRGMVKVGDCTPWSDIECVHKESG", "Kd": 7}, {"binder": "Human TRAIL-R2-Fc fusion protein (wild type), O14763 P150A (protein) QQDLAPQQRAAPQQKRSSPSEGLCPPGHHISEDGRDCISCKYGQDYSTHWNDLLFCLRCTRCDSGEVELSPCTTTRNTVCQCEEGTFREEDSAEMCRKCRTGCPRGMVKVGDCTPWSDIECVHKESG", "Kd": 8}, {"binder": "Human TRAIL-R2-Fc fusion protein (wild type), O14763 M152A (protein) QQDLAPQQRAAPQQKRSSPSEGLCPPGHHISEDGRDCISCKYGQDYSTHWNDLLFCLRCTRCDSGEVELSPCTTTRNTVCQCEEGTFREEDSPEACRKCRTGCPRGMVKVGDCTPWSDIECVHKESG", "Kd": 7}, {"binder": "Human TRAIL-R2-Fc fusion protein (wild type), O14763 K155A (protein) QQDLAPQQRAAPQQKRSSPSEGLCPPGHHISEDGRDCISCKYGQDYSTHWNDLLFCLRCTRCDSGEVELSPCTTTRNTVCQCEEGTFREEDSPEMCRACRTGCPRGMVKVGDCTPWSDIECVHKESG", "Kd": 8}, {"binder": "Human TRAIL-R2-Fc fusion protein (wild type), O14763 R154A (protein) QQDLAPQQRAAPQQKRSSPSEGLCPPGHHISEDGRDCISCKYGQDYSTHWNDLLFCLRCTRCDSGEVELSPCTTTRNTVCQCEEGTFREEDSPEMCAKCRTGCPRGMVKVGDCTPWSDIECVHKESG", "Kd": 6}]}]}
